T1: Human CD3eg linker (human)
T1 construct: Single-chain construct; also called recombinant human CD3
T1 chain: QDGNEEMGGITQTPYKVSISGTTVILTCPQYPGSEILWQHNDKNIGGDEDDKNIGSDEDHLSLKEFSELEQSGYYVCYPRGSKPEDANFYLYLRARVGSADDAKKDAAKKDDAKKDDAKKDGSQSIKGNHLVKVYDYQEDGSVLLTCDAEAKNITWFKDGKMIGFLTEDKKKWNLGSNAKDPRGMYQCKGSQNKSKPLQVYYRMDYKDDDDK


Target: T1, Human CD3eg linker
Assay: SPR; fold vs parent H183/L072

| Binder | fold change of affinity [fold] |
| --- | --- |
| H183/L072 VL M27eR (antibody, name in Kabat numbering, V domains shown) VH: QVQLVESGGGLVQPGRSLRLSCAASGFTFSNAWMHWVRQAPGKGLEWVAQIKDKGNAYAAYYAPSVKGRFTISRDDSKNSIYLQMNSLKTEDTAVYYCHYVHYASASTVLPAFGVDAWGQGTTVTVSS VL: DIVMTQSPLSLPVTPGEPASISCQASQELVHRNRNTYLHWYQQKPGQAPRLLIYKVSNRFPGVPDRFSGSGSGTDFTLKISRVEAEDVGVYYCAQGTSVPFTFGQGTKLEIK | 1.4 |
| H183/L072 VL M27eY (antibody, name in Kabat numbering, V domains shown) VH: QVQLVESGGGLVQPGRSLRLSCAASGFTFSNAWMHWVRQAPGKGLEWVAQIKDKGNAYAAYYAPSVKGRFTISRDDSKNSIYLQMNSLKTEDTAVYYCHYVHYASASTVLPAFGVDAWGQGTTVTVSS VL: DIVMTQSPLSLPVTPGEPASISCQASQELVHYNRNTYLHWYQQKPGQAPRLLIYKVSNRFPGVPDRFSGSGSGTDFTLKISRVEAEDVGVYYCAQGTSVPFTFGQGTKLEIK | 0.9 |
| H183/L072 VL N28G (antibody, name in Kabat numbering, V domains shown) VH: QVQLVESGGGLVQPGRSLRLSCAASGFTFSNAWMHWVRQAPGKGLEWVAQIKDKGNAYAAYYAPSVKGRFTISRDDSKNSIYLQMNSLKTEDTAVYYCHYVHYASASTVLPAFGVDAWGQGTTVTVSS VL: DIVMTQSPLSLPVTPGEPASISCQASQELVHMGRNTYLHWYQQKPGQAPRLLIYKVSNRFPGVPDRFSGSGSGTDFTLKISRVEAEDVGVYYCAQGTSVPFTFGQGTKLEIK | 0 |
| H183/L072 VL N28A (antibody, name in Kabat numbering, V domains shown) VH: QVQLVESGGGLVQPGRSLRLSCAASGFTFSNAWMHWVRQAPGKGLEWVAQIKDKGNAYAAYYAPSVKGRFTISRDDSKNSIYLQMNSLKTEDTAVYYCHYVHYASASTVLPAFGVDAWGQGTTVTVSS VL: DIVMTQSPLSLPVTPGEPASISCQASQELVHMARNTYLHWYQQKPGQAPRLLIYKVSNRFPGVPDRFSGSGSGTDFTLKISRVEAEDVGVYYCAQGTSVPFTFGQGTKLEIK | 0 |
| H183/L072 VL M27eW (antibody, name in Kabat numbering, V domains shown) VH: QVQLVESGGGLVQPGRSLRLSCAASGFTFSNAWMHWVRQAPGKGLEWVAQIKDKGNAYAAYYAPSVKGRFTISRDDSKNSIYLQMNSLKTEDTAVYYCHYVHYASASTVLPAFGVDAWGQGTTVTVSS VL: DIVMTQSPLSLPVTPGEPASISCQASQELVHWNRNTYLHWYQQKPGQAPRLLIYKVSNRFPGVPDRFSGSGSGTDFTLKISRVEAEDVGVYYCAQGTSVPFTFGQGTKLEIK | 1 |
| H183/L072 VL M27eV (antibody, name in Kabat numbering, V domains shown) VH: QVQLVESGGGLVQPGRSLRLSCAASGFTFSNAWMHWVRQAPGKGLEWVAQIKDKGNAYAAYYAPSVKGRFTISRDDSKNSIYLQMNSLKTEDTAVYYCHYVHYASASTVLPAFGVDAWGQGTTVTVSS VL: DIVMTQSPLSLPVTPGEPASISCQASQELVHVNRNTYLHWYQQKPGQAPRLLIYKVSNRFPGVPDRFSGSGSGTDFTLKISRVEAEDVGVYYCAQGTSVPFTFGQGTKLEIK | 0.8 |
| H183/L072 VL N28D (antibody, name in Kabat numbering, V domains shown) VH: QVQLVESGGGLVQPGRSLRLSCAASGFTFSNAWMHWVRQAPGKGLEWVAQIKDKGNAYAAYYAPSVKGRFTISRDDSKNSIYLQMNSLKTEDTAVYYCHYVHYASASTVLPAFGVDAWGQGTTVTVSS VL: DIVMTQSPLSLPVTPGEPASISCQASQELVHMDRNTYLHWYQQKPGQAPRLLIYKVSNRFPGVPDRFSGSGSGTDFTLKISRVEAEDVGVYYCAQGTSVPFTFGQGTKLEIK | 0 |
| H183/L072 VL M27eT (antibody, name in Kabat numbering, V domains shown) VH: QVQLVESGGGLVQPGRSLRLSCAASGFTFSNAWMHWVRQAPGKGLEWVAQIKDKGNAYAAYYAPSVKGRFTISRDDSKNSIYLQMNSLKTEDTAVYYCHYVHYASASTVLPAFGVDAWGQGTTVTVSS VL: DIVMTQSPLSLPVTPGEPASISCQASQELVHTNRNTYLHWYQQKPGQAPRLLIYKVSNRFPGVPDRFSGSGSGTDFTLKISRVEAEDVGVYYCAQGTSVPFTFGQGTKLEIK | 1.2 |
| H183/L072 VL N28E (antibody, name in Kabat numbering, V domains shown) VH: QVQLVESGGGLVQPGRSLRLSCAASGFTFSNAWMHWVRQAPGKGLEWVAQIKDKGNAYAAYYAPSVKGRFTISRDDSKNSIYLQMNSLKTEDTAVYYCHYVHYASASTVLPAFGVDAWGQGTTVTVSS VL: DIVMTQSPLSLPVTPGEPASISCQASQELVHMERNTYLHWYQQKPGQAPRLLIYKVSNRFPGVPDRFSGSGSGTDFTLKISRVEAEDVGVYYCAQGTSVPFTFGQGTKLEIK | 0 |
| H183/L072 VL M27eS (antibody, name in Kabat numbering, V domains shown) VH: QVQLVESGGGLVQPGRSLRLSCAASGFTFSNAWMHWVRQAPGKGLEWVAQIKDKGNAYAAYYAPSVKGRFTISRDDSKNSIYLQMNSLKTEDTAVYYCHYVHYASASTVLPAFGVDAWGQGTTVTVSS VL: DIVMTQSPLSLPVTPGEPASISCQASQELVHSNRNTYLHWYQQKPGQAPRLLIYKVSNRFPGVPDRFSGSGSGTDFTLKISRVEAEDVGVYYCAQGTSVPFTFGQGTKLEIK | 1.2 |

Continued, values first:

| fold change of affinity [fold] | Binder |
| --- | --- |
| 0 | H183/L072 VL N28Q (antibody, name in Kabat numbering, V domains shown) VH: QVQLVESGGGLVQPGRSLRLSCAASGFTFSNAWMHWVRQAPGKGLEWVAQIKDKGNAYAAYYAPSVKGRFTISRDDSKNSIYLQMNSLKTEDTAVYYCHYVHYASASTVLPAFGVDAWGQGTTVTVSS VL: DIVMTQSPLSLPVTPGEPASISCQASQELVHMQRNTYLHWYQQKPGQAPRLLIYKVSNRFPGVPDRFSGSGSGTDFTLKISRVEAEDVGVYYCAQGTSVPFTFGQGTKLEIK |
| 0 | H183/L072 VL N28H (antibody, name in Kabat numbering, V domains shown) VH: QVQLVESGGGLVQPGRSLRLSCAASGFTFSNAWMHWVRQAPGKGLEWVAQIKDKGNAYAAYYAPSVKGRFTISRDDSKNSIYLQMNSLKTEDTAVYYCHYVHYASASTVLPAFGVDAWGQGTTVTVSS VL: DIVMTQSPLSLPVTPGEPASISCQASQELVHMHRNTYLHWYQQKPGQAPRLLIYKVSNRFPGVPDRFSGSGSGTDFTLKISRVEAEDVGVYYCAQGTSVPFTFGQGTKLEIK |
| 0 | H183/L072 VL N28K (antibody, name in Kabat numbering, V domains shown) VH: QVQLVESGGGLVQPGRSLRLSCAASGFTFSNAWMHWVRQAPGKGLEWVAQIKDKGNAYAAYYAPSVKGRFTISRDDSKNSIYLQMNSLKTEDTAVYYCHYVHYASASTVLPAFGVDAWGQGTTVTVSS VL: DIVMTQSPLSLPVTPGEPASISCQASQELVHMKRNTYLHWYQQKPGQAPRLLIYKVSNRFPGVPDRFSGSGSGTDFTLKISRVEAEDVGVYYCAQGTSVPFTFGQGTKLEIK |
| 0 | H183/L072 VL N28S (antibody, name in Kabat numbering, V domains shown) VH: QVQLVESGGGLVQPGRSLRLSCAASGFTFSNAWMHWVRQAPGKGLEWVAQIKDKGNAYAAYYAPSVKGRFTISRDDSKNSIYLQMNSLKTEDTAVYYCHYVHYASASTVLPAFGVDAWGQGTTVTVSS VL: DIVMTQSPLSLPVTPGEPASISCQASQELVHMSRNTYLHWYQQKPGQAPRLLIYKVSNRFPGVPDRFSGSGSGTDFTLKISRVEAEDVGVYYCAQGTSVPFTFGQGTKLEIK |
| 0 | H183/L072 VL N28T (antibody, name in Kabat numbering, V domains shown) VH: QVQLVESGGGLVQPGRSLRLSCAASGFTFSNAWMHWVRQAPGKGLEWVAQIKDKGNAYAAYYAPSVKGRFTISRDDSKNSIYLQMNSLKTEDTAVYYCHYVHYASASTVLPAFGVDAWGQGTTVTVSS VL: DIVMTQSPLSLPVTPGEPASISCQASQELVHMTRNTYLHWYQQKPGQAPRLLIYKVSNRFPGVPDRFSGSGSGTDFTLKISRVEAEDVGVYYCAQGTSVPFTFGQGTKLEIK |

Source: patent US20210388087A1 (Chugai, published 2021)
